US20250312499A1 (RADIONETICS ONCOLOGY, published 2025)
Numbered stars: 1 amine (or outer) side, 2 acyl side, 3 side chain; on linkers, the order of the positions; unused ones are H or OH. Square brackets hold non-standard residues; d marks the D form. * marks the point of attachment. X2 = 4‑amino‑1‑((3-fluoro-4-methylbenzyl)glycyl)piperidine‑4‑carboxylic acid, Cc1ccc(CN(CC(=O)N2CCC(N[*:1])(C(=O)[*:2])CC2)[*:3])cc1F; X10 = 3‑(2-(2-(3-(4-iodophenyl)propanamido)ethoxy)ethoxy)propanoyl, O=C(CCc1ccc(I)cc1)NCCOCCOCCC(=O)*; DOTA = O=C(O)CN1CCN(CC(=O)O)CCN(CC(=O)*)CCN(CC(=O)O)CC1; Api(1-amidino) = N=C(N)N1CCC(N)(C(=O)O)CC1; 4Pal = N[C@@H](Cc1ccncc1)C(=O)O; d4Pal = N[C@H](Cc1ccncc1)C(=O)O; Ahx = NCCCCCC(=O)O; azaGly = NNC(=O)O

Each binder was assayed against T1, human kisspeptin receptor (KISS1R) (human, UniProt Q969F8 1-398) (assay: radioligand competition, hKISS1R membranes; legend: A is <10 nM).
T1 construct: whole, on cells; Assayed as crude membrane fractions of tetracycline-induced Flp-In T-Rex 293 cells expressing the receptor; also called GPR54; hKiSSR
Description: The cells are grown to 85-100% confluence on standard tissue culture dishes in Dulbecco's Modified Eagles Medium (DMEM) (Corning) supplemented with 10% FBS (Gemini), 1% penicillin-streptomycin-glutamine (Gibco), 500 μg/mL hygromycin, and 15 μg/mL blastacidin. 48 hrs prior to preparing membranes 10 μg/ml of tetracycline is added to the culture media to induce receptor expression. To prepare membranes, cells are scraped and collected in 1× Dulbecco's phosphate buffered saline (Corning) and then pelleted at 1000 RPMs. The cell pellet is reconstituted in membrane preparation buffer (20 mM HEPES, 6 mM MgCl₂ and 1 mM EGTA, protease inhibitor tablets (Pierce), pH 7.4) and placed in a cell disruption vessel (Parr Instrument company) at 1000 PSI for 30 min on ice. The pressurized contents are then released and spun down at 1000 RPMs and the supernatant is collected and further centrifuged at 15,000 RPMs to pellet the membranes. The membrane pellet is resuspended in membrane preparation buffer, snap frozen and stored at −80° C. for later use.
Assay contents are then filtered through unifilter CF/C: microplates (PerkinElmer) pre-soaked with 0.5% BSA and washed with 9×400 μL of cold wash buffer (10 mM HEPES, 500 mM NaCl, 0.1% Tween-20, pH7.4). Assay plates are read using a Microbeta² (PerkinElmer) and Ki values for compounds are determined using a GraphPad Prism 9.3 non-linear regression analysis.

T1 sequence (Q969F8 whole entry): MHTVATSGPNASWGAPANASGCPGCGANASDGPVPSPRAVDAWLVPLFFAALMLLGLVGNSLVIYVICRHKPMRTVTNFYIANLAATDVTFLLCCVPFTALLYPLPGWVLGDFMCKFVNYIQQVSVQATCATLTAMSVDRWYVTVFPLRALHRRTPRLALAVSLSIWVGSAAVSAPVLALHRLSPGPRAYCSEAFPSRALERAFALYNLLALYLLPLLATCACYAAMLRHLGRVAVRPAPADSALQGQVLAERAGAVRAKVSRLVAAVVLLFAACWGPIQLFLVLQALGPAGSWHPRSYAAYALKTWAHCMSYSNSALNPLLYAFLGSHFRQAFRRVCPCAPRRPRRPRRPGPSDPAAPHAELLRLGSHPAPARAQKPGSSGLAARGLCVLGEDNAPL

Ki, < 10 nM:
{DOTA-Ahx}-[dY][dW]NTF[azaGly]L[X2][4Pal]-NH2 (also: nonradioactive indium(III) chelated by DOTA, also called 105-In) [In Complex of Compound 105]
{DOTA}-G[dY][d4Pal]NTF[azaGly]L[X2]Y-NH2 (also: nonradioactive indium(III) chelated by DOTA, also called 193-In) [Indium complex of Compound 193]
{DOTA-Ahx}-F[azaGly]L[X2]W-NH2 (also: nonradioactive indium(III) chelated by DOTA, also called 2-In) [In Complex of Compound 2]
{DOTA-Ahx}-[dY][dW]NTF[azaGly]L[X2]W-NH2 (also: nonradioactive indium(III) chelated by DOTA, also called 1-In) [In Complex of Compound 1]
X10-[dY]K(DOTA)NTF[azaGly]L[Api(1-amidino)]W-NH2 (also: indium(III) chelated by DOTA on Lys, also called 196-In) [In Complex of Compound 196]
{DOTA-Ahx}-[dY][dW]NTF[azaGly]L[X2]W-NH2 (also: lutetium(III) chelated by DOTA, also called 1-Lu) [Lu Complex of Compound 1]
{DOTA-Ahx}-[dY][dW]NTF[azaGly]L[Api(1-amidino)]W-NH2 (also: nonradioactive indium(III) chelated by DOTA, also called 6-In) [In Complex of Compound 6]
{DOTA-Ahx}-[dY][dW]NTF[azaGly]L[X2]W-NH2 (also: nonradioactive gallium(III) chelated by DOTA, also called 1-Ga) [Ga Complex of Compound 1]
